53 sequences from the supplement of paper PMC10567573 can be followed below.

The nature of this series: protein stability index of a GFP-peptide fusion (GPS, HEK-293T) (PSI 1-6); higher = more stable.
The mark [1] stands for this setting: treatment: DMSO, c terminus: a fixed tail appended.
Where [2] appears, read: treatment: MLN4924 1 uM, 8 h, c terminus: a fixed tail appended.
Setting [3] is: treatment: DMSO, c terminus: native.
Where [4] appears, read: treatment: MLN4924 1 uM, 8 h, c terminus: native.

± gives the standard deviation.
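Note: 24-mer peptide tiles fused after GFP, lentivirally expressed, FACS-sorted into six equal bins by GFP/DsRed ratio, decoded by Illumina sequencing, PSI is the read-weighted mean bin number.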

As for WLYCYDPVMDVWARKQDMNTKRAI [KLHL14], the protein stability index stood at 2.07 ± 0.28 under setting [1] and 2.53 ± 0.55 under setting [2].

As for LTVEGFQSWMWRGLTFLLPFLFFG [TMEM120A], the protein stability index came out at 2.98 ± 0.45 under setting [1] and 2.74 ± 0.035 under setting [2].

In the case of SSNLSLDVLRGNDETIGFEDILND [POMP], the protein stability index turned out to be 5.08 ± 0.17 under setting [1] and 4.94 ± 0.32 under setting [2].

As for DRQYDSRGRFGELLLLLPTLQSIT [HNF4A], the protein stability index came out at 2.35 ± 0.47 under setting [1] and 2.17 ± 0.21 under setting [2].

As for HIDAIILALPEDLQGILLKTGMT [DENND6A], the protein stability index is, setting by setting: under setting [3], 2.31 ± 0.59; under setting [4], 2.59 ± 0.67.

Turning to PGPAPGSPGELEEDLLLPGACPGA [WEE1], the protein stability index by setting is: under setting [1], 5.24 ± 0.52; under setting [2], 5.49 ± 0.13.

Turning to SDLFDLMGSSQATMTSSQSMNFSM [CLINT1], the protein stability index worked out at 2.42 ± 0.22 under setting [1] and 2.66 ± 0.24 under setting [2].

VSDSLTWREFHYIQSKLGIVSLLL [STEAP1]: the protein stability index under setting [1] worked out at 2.45 ± 0.54 and the protein stability index under setting [2] was found to be 2.18 ± 0.25.

Consider SYFDRGAKGGSRLCTPEGWFSCQG [DFFB], for which the protein stability index by setting is: under setting [1], 2.46 ± 0.14; under setting [2], 2.6 ± 0.18.

Take NRRGGPPFAFVEFEDPRDAEDAVY [SRSF1]: the protein stability index is, setting by setting: under setting [1], 3.91 ± 0.21; under setting [2], 4.21 ± 0.26.

Take FPHSGKDCLLCFPETLPESSLFSV [C8orf76]: the protein stability index under setting [1] is 2.21 ± 0.52 and the protein stability index under setting [2] came to 2.36 ± 0.32.

For the sequence LFNLSNFLDKSGSHGYDMSTFIRR [SNAP91], the protein stability index is, setting by setting: under setting [1], 2.62 ± 0.62; under setting [2], 2.25 ± 0.35.

Regarding EHVSRALCIHTGRELRCKVFPIKH [TRIB1], the protein stability index by setting is: under setting [1], 2.21 ± 0.13; under setting [2], 2.61 ± 0.3.

Turning to QEDKALWEEEKALWVEERALLEGE [CCDC70], the protein stability index stood at 5.09 ± 0.3 under setting [1] and 5.17 ± 0.33 under setting [2].

As to HLVIAEMMELGSRSRGASQKKQKL [FATE1], the protein stability index was 3.25 ± 0.14 under setting [1] and 3.34 ± 0.2 under setting [2].

For the sequence FYFENALSKSNKPIHTIILNPHVH [CAMK2D], the protein stability index runs as follows: under setting [1], 2.01 ± 0.58; under setting [2], 2.42 ± 0.044.

In the case of MAMPNGFHEDGPQGPGGDEDDDEE [PSD2], the protein stability index is, setting by setting: under setting [1], 5.41 ± 0.3; under setting [2], 5.47 ± 0.18.

Take KAHKYSELIILYEKKGLHEKALQV [VPS39]: the protein stability index is, setting by setting: under setting [1], 2.19 ± 0.43; under setting [2], 2.18 ± 0.46.

For SSISPGLHSFTDHQRLMKRRKSV [KCNK9], the protein stability index is, setting by setting: under setting [3], 5.64 ± 0.088; under setting [4], 5.47 ± 0.23.

For EPVIKVAAIDNGLAFPLKHPDSWR [PI4K2A], the protein stability index runs as follows: under setting [1], 3.41 ± 0.28; under setting [2], 3.02 ± 0.23.

In the case of AGGEENMTETDAFYKREMFDPAEK [CASP6], the protein stability index is 5.13 ± 0.32 under setting [1] and 5.37 ± 0.3 under setting [2].

ATADFADVADDFENYHKLRRSSSK [NETO1]: the protein stability index is, setting by setting: under setting [1], 4.99 ± 0.096; under setting [2], 5.196 ± 0.05.

For the sequence DQIEDMFEQGKWDVFSENLLADVK [STX11], the protein stability index was 3.75 ± 0.14 under setting [1] and 3.76 ± 0.3 under setting [2].

With QGLLGRSPPTRPVPGHRSERAIRT [SPRY1], the protein stability index amounted to 4.51 ± 0.21 under setting [1] and 4.47 ± 0.2 under setting [2].

Regarding LRPAKRELRGAEPGRPARLDQLLD [SPSB4], the protein stability index worked out at 4.12 ± 0.2 under setting [1] and 4.03 ± 0.22 under setting [2].

PKWGWEQLEVTCTPYLKETLNSIW [POMT2]: the protein stability index amounted to 2.49 ± 0.58 under setting [1] and 2.12 ± 0.61 under setting [2].

Turning to CCSSADICPKCWTLMTMAIRIIDR [PRIM1], the protein stability index under setting [1] is 2.25 ± 0.18 and the protein stability index under setting [2] stood at 2.44 ± 0.55.

For the sequence QRVKLKLWDTSGQGRFCTIFRSYS [RAB40A], the protein stability index came out at 2.3 ± 0.29 under setting [1] and 2.14 ± 0.33 under setting [2].

As for VDALKSDKKVRTIIIRSEVPGIFC [AUH], the protein stability index reads like this: under setting [1], 2.01 ± 0.38; under setting [2], 2.35 ± 0.73.

Take EFTIRDLQRLGELQSELAGVADFS [INTS4]: the protein stability index worked out at 3.3 ± 0.17 under setting [1] and 3.42 ± 0.48 under setting [2].

Consider LAIQEMVSLTSPSAPPTSRTSSGN [PPFIA4], for which the protein stability index runs as follows: under setting [1], 3.88 ± 0.19; under setting [2], 4.05 ± 0.17.

With STNGELNVDDPTGAHSNAPITAHA [CSNK1G1], the protein stability index by setting is: under setting [1], 5.39 ± 0.15; under setting [2], 5.29 ± 0.33.

For the sequence IPEKDMDERRRLLEQKTQESQKKK [ZNF207], the protein stability index by setting is: under setting [1], 5.51 ± 0.27; under setting [2], 5.59 ± 0.11.

As to SKLVESGIQFMDEPEMAVFLQNAK [TRIM55], the protein stability index is 3.71 ± 0.34 under setting [1] and 4.01 ± 0.21 under setting [2].

With TMIRKLEGHHHDVVACDFSPDGAL [WSB1], the protein stability index runs as follows: under setting [1], 3.25 ± 0.28; under setting [2], 3.48 ± 0.37.

Take CPTPARLATTEKKTEQQRRREKAV [NOP53]: the protein stability index was 5.19 ± 0.27 under setting [1] and 5.28 ± 0.24 under setting [2].

As to FNIAGTVVKYRRPMDVYETGIEYI [ADAMTSL2], the protein stability index runs as follows: under setting [1], 2.16 ± 0.33; under setting [2], 1.8 ± 0.046.

For the sequence DRVVAFMDHIRIFQEQVEKLKALH [NR2F2], the protein stability index reads like this: under setting [1], 2.28 ± 0.36; under setting [2], 2.22 ± 0.36.

For the sequence EIDSVPKTQSELASESEHIPKPQS [MIA2], the protein stability index by setting is: under setting [1], 5.42 ± 0.26; under setting [2], 5.49 ± 0.2.

NVLKIAPESAIKFMAYEQIKRLVG [SLC25A25] registered a protein stability index under setting [1] of 3.07 ± 0.54 and a protein stability index under setting [2] of 3.04 ± 0.67.

For the sequence TPLHIAAQNNCPAIMNALIEAGAH [FEM1A], the protein stability index is, setting by setting: under setting [1], 3.07 ± 0.2; under setting [2], 3.13 ± 0.23.

As to SQSILPLEHGSIYIPSSYVDSHHE [ESR2], the protein stability index is, setting by setting: under setting [1], 3.96 ± 0.19; under setting [2], 3.95 ± 0.17.

Regarding EGKSRHVDFQCVKSKSITNLAAAA [BTBD10], the protein stability index was 3.48 ± 0.43 under setting [1] and 3.9 ± 0.28 under setting [2].

For QPGTNCALAIKVNLCGHWYYSKAC [ADAMTSL2], the protein stability index came out at 2.7 ± 0.72 under setting [1] and 2.75 ± 0.45 under setting [2].

On to QIYHCTKRKEEECSTTDHPYKKPY [TBX5], for which the protein stability index reads like this: under setting [1], 3.92 ± 0.095; under setting [2], 4.25 ± 0.26.

WSVTGKAEPAMPGRLYVHPDSPAT [TBX5]: the protein stability index is 3.67 ± 0.17 under setting [1] and 3.62 ± 0.22 under setting [2].

With AVLFTGIVALYIASGLTGFIGLEV [ATL3], the protein stability index is 3.49 ± 0.43 under setting [1] and 3.52 ± 0.35 under setting [2].

As for QYLRLPDAPEQRLRVMTTNIRSAR [ELOA2], the protein stability index reads like this: under setting [1], 3.58 ± 0.31; under setting [2], 3.9 ± 0.16.

Sequence PGPPAAPRARRRLGSGPDRELRKP [PWWP2B] registered a protein stability index under setting [1] of 5.03 ± 0.56 and a protein stability index under setting [2] of 5.12 ± 0.35.

On to FGGGCDLTPTYLNQEDAIHFHRTL [CPOX], for which the protein stability index was 2.62 ± 0.4 under setting [1] and 2.81 ± 0.3 under setting [2].

Turning to AGTKVFEVPEMSPVTCCDVSSNNR [TLE6], the protein stability index under setting [1] worked out at 4.13 ± 0.26 and the protein stability index under setting [2] is 4.17 ± 0.33.

With TELVLSDCMLSEEGATLLLRGLCA [LRRC45], the protein stability index is, setting by setting: under setting [1], 2.32 ± 0.3; under setting [2], 2.32 ± 0.24.

On to HRAHHKFSETHADPHNSRRGFFFS [SCD], for which the protein stability index under setting [1] came to 3.08 ± 0.18 and the protein stability index under setting [2] is 3.05 ± 0.3.
